The labels stand for the following.
B1: AUP1 (parent)
chain: FCASTRLPPTPLLLFPEEEATNGR

Drawing on the supplement of paper PMC10567573, this text covers protein stability index for 94 variants.
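Note: lentivirally expressed fusions sorted by FACS into six bins by GFP to DsRed ratio, PSI derived from sequencing read proportions per bin multiplied by bin number.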

The data set covers variants of B1. In words: protein stability index of a GFP-peptide fusion (GPS, HEK-293T) (PSI 1-6); higher = more stable. As to conditions: c terminus: a fixed tail appended.
With FCASTRLPPTPLLLFPEEEAVNGR [T21V], the protein stability index is 2.7. On to FCASTRLPPTPLLLFPEEEALNGR [T21L], for which the protein stability index is 2.37. For the variant FCASTRLPPTPLLLFPEEEASNGR [T21S], the protein stability index was found to be 2.52.

On to FCASTRLPPTPLLLFPEEEAFNGR [T21F], for which the protein stability index amounted to 2.28. Turning to FCASTRLPPTPLLLFPEEEAINGR [T21I], the protein stability index is 2.79. Take FCASTRLPPTPLLLFPEEEAQNGR [T21Q]: the protein stability index amounted to 2.46. For the variant FCASTRLPPTPLLLFPEEEAYNGR [T21Y], the protein stability index came out at 2.65.

With FCASYRLPPTPLLLFPEEEATNGR [T5Y], the protein stability index was determined as 2.27.

On to FCASKRLPPTPLLLFPEEEATNGR [T5K], for which the protein stability index came out at 2.64. With FCASLRLPPTPLLLFPEEEATNGR [T5L], the protein stability index was 2.11.

For FCASDRLPPTPLLLFPEEEATNGR [T5D], the protein stability index worked out at 3.44. As for FCASQRLPPTPLLLFPEEEATNGR [T5Q], the protein stability index was determined as 2.86.

With FCASRRLPPTPLLLFPEEEATNGR [T5R], the protein stability index is 1.99. On to FCASARLPPTPLLLFPEEEATNGR [T5A], for which the protein stability index was found to be 3.19.

As for FCASHRLPPTPLLLFPEEEATNGR [T5H], the protein stability index was found to be 2.66.

FCASWRLPPTPLLLFPEEEATNGR [T5W]: the protein stability index came out at 2.49.

Take FCASVRLPPTPLLLFPEEEATNGR [T5V]: the protein stability index is 2.83. Turning to MCASTRLPPTPLLLFPEEEATNGR [F1M], the protein stability index stood at 4.27. On to YCASTRLPPTPLLLFPEEEATNGR [F1Y], for which the protein stability index turned out to be 3. As to PCASTRLPPTPLLLFPEEEATNGR [F1P], the protein stability index was 4.53. As for TCASTRLPPTPLLLFPEEEATNGR [F1T], the figure is 4.6; as for HCASTRLPPTPLLLFPEEEATNGR [F1H], 4.28; as for ACASTRLPPTPLLLFPEEEATNGR [F1A], 4.17. For the variant FCASTQLPPTPLLLFPEEEATNGR [R6Q], the protein stability index is 3.49.

As to FCASTKLPPTPLLLFPEEEATNGR [R6K], the protein stability index was 3.09. Turning to FCASTELPPTPLLLFPEEEATNGR [R6E], the protein stability index came out at 4.11. As to FCASTVLPPTPLLLFPEEEATNGR [R6V], the protein stability index is 3.42. For FCASTMLPPTPLLLFPEEEATNGR [R6M] the value was 3.27; for FCASTYLPPTPLLLFPEEEATNGR [R6Y], 2.33; for FCASTALPPTPLLLFPEEEATNGR [R6A], 3.37. As for FCASTRLPPTPLLLFTEEEATNGR [P16T], the protein stability index worked out at 1.74. FCASTRLPPTPLLLFVEEEATNGR [P16V]: the protein stability index turned out to be 1.8. Consider FCASTRLPPTPLLLFNEEEATNGR [P16N], for which the protein stability index turned out to be 2.9.

For FCASTRLPPTPLLLFHEEEATNGR [P16H], the protein stability index worked out at 2.61.

With FCASTRLPPTPLLLFAEEEATNGR [P16A], the protein stability index came out at 2.68. Regarding FCASTRLPPTPLLLFFEEEATNGR [P16F], the protein stability index was found to be 2.24. Regarding FCASTRLPPTPLLLFYEEEATNGR [P16Y], the protein stability index came to 2.03. On to FCASTRLPPTPLLLFEEEEATNGR [P16E], for which the protein stability index came to 3.48. In the case of FCASTRLPPTPLLLFKEEEATNGR [P16K], the protein stability index worked out at 2.26. For the variant FCASTRLPPTPLLLFREEEATNGR [P16R], the protein stability index is 2.19. Consider FCAATRLPPTPLLLFPEEEATNGR [S4A], for which the protein stability index was determined as 2.8. As for FCANTRLPPTPLLLFPEEEATNGR [S4N], the figure is 2.94.

On to FCALTRLPPTPLLLFPEEEATNGR [S4L], for which the protein stability index stood at 2.85. As to FCAITRLPPTPLLLFPEEEATNGR [S4I], the protein stability index turned out to be 2.49. As to FCAGTRLPPTPLLLFPEEEATNGR [S4G], the protein stability index came out at 2.85. In the case of FCAYTRLPPTPLLLFPEEEATNGR [S4Y], the protein stability index is 2.28. For FCASTRLPPTPLLTFPEEEATNGR [L14T], the protein stability index was 3.41.

As to FCASTRLPPTPLLEFPEEEATNGR [L14E], the protein stability index came out at 3.74.

Regarding FCASTRLPPTPLLRFPEEEATNGR [L14R], the protein stability index worked out at 3.56. Take FCASTRLPPTPLLQFPEEEATNGR [L14Q]: the protein stability index was 3.88. Take FCASTRLPPTPLLKFPEEEATNGR [L14K]: the protein stability index came out at 2.8. For FCASTRLPPTPLLMFPEEEATNGR [L14M], the protein stability index is 3.29. Consider FCASTRLPPTPLLWFPEEEATNGR [L14W], for which the protein stability index amounted to 1.38. As for FCASTRLPPTPLLVFPEEEATNGR [L14V], the protein stability index worked out at 3.24.

On to FCASTRLPPTPLLNFPEEEATNGR [L14N], for which the protein stability index was 3.61. As to FCASTRLPPTPLLGFPEEEATNGR [L14G], the protein stability index is 2.66. Take FCASTRLPPTPLLYFPEEEATNGR [L14Y]: the protein stability index came out at 2.59. As to FCASTRLPPTPLLPFPEEEATNGR [L14P], the protein stability index was 3.48.

For the variant FCASTRLPPTPLLLFPEEEATNGL [R24L], the protein stability index came to 2.09. Turning to FCASTRLPPTPLLLFPEEEATNGC [R24C], the protein stability index came out at 2.72. As for FCASTRLPPTPLLLFPEEEATNGE [R24E], the figure is 3.4; as for FCASTRLPPTPLLLFPEEEATNGN [R24N], 3.01. Consider FCASTRLPPTPLLLFPEEEATNGF [R24F], for which the protein stability index is 2.39. For the variant FCASTRLPPTPLLLFPEEEATNGA [R24A], the protein stability index was found to be 3.27. Regarding FCASTRLPPTPLLLFPEEEATNGS [R24S], the protein stability index is 3.01. FCASTRLPPTPLLLFPEEEATNGK [R24K]: the protein stability index is 3.12. For the variant FSASTRLPPTPLLLFPEEEATNGR [C2S], the protein stability index was found to be 3.8. With FGASTRLPPTPLLLFPEEEATNGR [C2G], the protein stability index is 4.33.

For FKASTRLPPTPLLLFPEEEATNGR [C2K], the protein stability index is 4.06. In the case of FFASTRLPPTPLLLFPEEEATNGR [C2F], the protein stability index stood at 3.1. For FQASTRLPPTPLLLFPEEEATNGR [C2Q] the value was 3.58; for FVASTRLPPTPLLLFPEEEATNGR [C2V], 1.55. Regarding FRASTRLPPTPLLLFPEEEATNGR [C2R], the protein stability index was 3.81.

On to FPASTRLPPTPLLLFPEEEATNGR [C2P], for which the protein stability index is 3.92. Regarding FIASTRLPPTPLLLFPEEEATNGR [C2I], the protein stability index amounted to 2.62. For the variant FDASTRLPPTPLLLFPEEEATNGR [C2D], the protein stability index was found to be 4.81.

For the variant FCASTRLPPTPLLLFPEEKATNGR [E19K], the protein stability index worked out at 2.32. With FCASTRLPPTPLLLFPEEFATNGR [E19F], the protein stability index was found to be 1.73.

Take FCASTRLPPTPLLLFPEEIATNGR [E19I]: the protein stability index was 2.02.

Take FCASTRLPPTPLLLFPEEQATNGR [E19Q]: the protein stability index was 2.94.

On to FCASTRLPPTPLLLFPEENATNGR [E19N], for which the protein stability index is 2.62. In the case of FCASTRLPPTPLLLFPEEYATNGR [E19Y], the protein stability index worked out at 2.69. For FCASTRLPPTPLLLFPEERATNGR [E19R], the protein stability index amounted to 2.05. Turning to FCASTRLPPTPLLLFPEEPATNGR [E19P], the protein stability index was found to be 2.38. On to FCASTRLPPQPLLLFPEEEATNGR [T10Q], for which the protein stability index was 3.13.

With FCASTRLPPVPLLLFPEEEATNGR [T10V], the protein stability index was 2.39.

Regarding FCASTRLPPAPLLLFPEEEATNGR [T10A], the protein stability index came out at 3.13. As for FCASTRLPPIPLLLFPEEEATNGR [T10I], the figure is 2.52; as for FCASTRLPPYPLLLFPEEEATNGR [T10Y], 1.99; as for FCASTRLPPMPLLLFPEEEATNGR [T10M], 2.28.

As to FCASTRQPPTPLLLFPEEEATNGR [L7Q], the protein stability index came to 3.16.

Consider FCASTRRPPTPLLLFPEEEATNGR [L7R], for which the protein stability index was 2.63. As for FCASTRVPPTPLLLFPEEEATNGR [L7V], the figure is 3.31; as for FCASTREPPTPLLLFPEEEATNGR [L7E], 3.24.
